Measurements: US20250304919A1 (MASSEY VENTURES, published 2025)

Target: T1, human fibronectin (human, UniProt P02751 32-2477)
T1 construct: also called Fn; analyte
Assay: lateral flow dipstick; reference LOD of 6.4 ng/mL is cited from the literature

T1 sequence (P02751 32-2477 limits assumed): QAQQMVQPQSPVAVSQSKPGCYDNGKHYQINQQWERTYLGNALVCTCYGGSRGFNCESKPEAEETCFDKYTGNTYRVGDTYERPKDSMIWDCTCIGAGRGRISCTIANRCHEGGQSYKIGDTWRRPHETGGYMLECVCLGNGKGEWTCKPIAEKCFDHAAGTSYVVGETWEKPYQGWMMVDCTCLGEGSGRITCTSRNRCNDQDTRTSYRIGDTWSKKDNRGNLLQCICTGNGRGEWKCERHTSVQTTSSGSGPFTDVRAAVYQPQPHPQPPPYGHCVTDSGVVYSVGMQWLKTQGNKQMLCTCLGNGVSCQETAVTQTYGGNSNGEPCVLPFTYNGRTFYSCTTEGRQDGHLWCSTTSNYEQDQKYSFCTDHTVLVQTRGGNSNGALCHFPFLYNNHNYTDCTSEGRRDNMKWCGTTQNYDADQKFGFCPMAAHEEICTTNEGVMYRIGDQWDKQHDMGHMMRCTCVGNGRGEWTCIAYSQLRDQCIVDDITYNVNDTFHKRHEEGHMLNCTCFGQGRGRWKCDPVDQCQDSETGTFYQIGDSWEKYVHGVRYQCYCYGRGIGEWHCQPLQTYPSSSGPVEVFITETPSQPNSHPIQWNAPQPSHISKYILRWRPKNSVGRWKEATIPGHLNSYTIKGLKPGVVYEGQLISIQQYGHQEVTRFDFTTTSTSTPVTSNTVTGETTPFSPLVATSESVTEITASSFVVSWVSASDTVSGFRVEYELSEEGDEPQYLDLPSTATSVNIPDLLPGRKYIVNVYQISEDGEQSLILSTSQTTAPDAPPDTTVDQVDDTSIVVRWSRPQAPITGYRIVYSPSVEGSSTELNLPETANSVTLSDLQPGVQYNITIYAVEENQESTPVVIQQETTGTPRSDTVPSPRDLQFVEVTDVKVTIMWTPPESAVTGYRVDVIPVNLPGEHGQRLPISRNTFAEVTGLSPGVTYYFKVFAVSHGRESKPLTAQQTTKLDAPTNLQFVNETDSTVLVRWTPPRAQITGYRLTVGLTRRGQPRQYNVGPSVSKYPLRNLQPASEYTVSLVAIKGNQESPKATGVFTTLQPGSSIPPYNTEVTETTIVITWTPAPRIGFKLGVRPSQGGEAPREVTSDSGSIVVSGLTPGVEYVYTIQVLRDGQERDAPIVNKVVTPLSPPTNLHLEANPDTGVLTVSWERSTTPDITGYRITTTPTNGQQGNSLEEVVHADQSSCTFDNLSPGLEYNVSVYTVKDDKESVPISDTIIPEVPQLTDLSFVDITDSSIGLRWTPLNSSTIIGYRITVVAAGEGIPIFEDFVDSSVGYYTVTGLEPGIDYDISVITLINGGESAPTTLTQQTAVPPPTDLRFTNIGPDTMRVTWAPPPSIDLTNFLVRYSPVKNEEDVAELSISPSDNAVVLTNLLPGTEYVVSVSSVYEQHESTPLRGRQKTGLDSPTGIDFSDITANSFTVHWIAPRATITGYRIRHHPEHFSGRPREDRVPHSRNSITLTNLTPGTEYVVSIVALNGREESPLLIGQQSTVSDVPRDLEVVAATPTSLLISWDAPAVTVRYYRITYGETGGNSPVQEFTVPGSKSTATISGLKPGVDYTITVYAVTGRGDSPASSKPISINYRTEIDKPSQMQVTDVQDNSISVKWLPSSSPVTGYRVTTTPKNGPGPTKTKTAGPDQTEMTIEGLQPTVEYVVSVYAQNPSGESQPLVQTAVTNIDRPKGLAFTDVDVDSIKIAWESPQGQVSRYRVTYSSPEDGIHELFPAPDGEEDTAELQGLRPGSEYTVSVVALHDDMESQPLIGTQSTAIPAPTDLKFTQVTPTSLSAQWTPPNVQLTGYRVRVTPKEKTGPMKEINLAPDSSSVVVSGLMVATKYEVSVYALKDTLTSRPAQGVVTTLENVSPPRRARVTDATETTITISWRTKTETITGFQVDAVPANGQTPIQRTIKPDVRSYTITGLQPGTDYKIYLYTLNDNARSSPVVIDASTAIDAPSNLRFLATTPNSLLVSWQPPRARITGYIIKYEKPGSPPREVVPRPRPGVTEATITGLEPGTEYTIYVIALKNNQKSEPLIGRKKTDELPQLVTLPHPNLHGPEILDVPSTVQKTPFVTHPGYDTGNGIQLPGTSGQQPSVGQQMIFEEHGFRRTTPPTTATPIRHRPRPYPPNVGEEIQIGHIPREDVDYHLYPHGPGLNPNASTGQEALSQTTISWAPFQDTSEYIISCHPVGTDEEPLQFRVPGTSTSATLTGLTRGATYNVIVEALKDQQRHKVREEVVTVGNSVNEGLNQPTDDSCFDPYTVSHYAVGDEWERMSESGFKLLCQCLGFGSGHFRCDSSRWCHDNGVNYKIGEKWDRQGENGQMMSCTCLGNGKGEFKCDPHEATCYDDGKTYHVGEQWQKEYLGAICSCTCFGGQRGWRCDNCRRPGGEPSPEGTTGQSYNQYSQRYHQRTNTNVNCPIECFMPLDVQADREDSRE

B1: BSFnano711G8FnB2 nanorods displaying the FnB-pIII fusion (fibronectin-binding repeats of Streptococcus pyogenes serum opacity factor Sof22 fused to pIII) (other)
chain: AAQPAGGHGPIVDIVEDTGTGVEGGAQNGVVSTQENKDPIVDITEDTQPGMSGSNDATVVEEDTTPQRPDVLVGGQSDPIDITEDTQPGMSGSNDATVVEEDTVPKRPDILVGGQSDPIDITEDTQPGMSGSNDATVIEEDTKPKRFFHFDNEAAAPGGAETVESCLAKPHTENSFTNVWKDDKTLDRYANYEGCLWNATGVVVCTGDETQCYGTWVPIGLAIPENEGGGSEGGGSEGGGSEGGGTKPPEYGDRPIPGYTYINPLDGTYPPGTEQNPANPNPSLEESQPLNTFMFQNNRFRNRQGALTVYTGTVTQGTDPVKTYYQYTPVSSKAMYDAYWNGKFRDCAFHSGFNEDPFVCEYQGQSSDLPQPPVNAGGGSGGGSGGGSEGGGSEGGGSEGGGSEGGGSGGGSGSGDFDYEKMANANKGAMTENADENALQSDAKGKLDSVATDYGAAIDGFIGDVSGLANGNGATGDFAGSNSQMAQVGDGDNSPLMNNFRQYLPSLPQSVECRPFVFGAGKPYEFSIDCDKINLFRGVFAFLLYVATFMYVFSTFANILRNKES
  fold improvement of LOD against FnB nanorods of the phage system (Sattar et al., 2015): 160 fold
